Here are results for three molecules from US20040265797A1 (published 2004).

Where two headings read alike, the source gives them in different places. Ends that are not written are not given here. A value given as a limit tells only on which side of the number the result lay.

The target of experiment [1] is T1, Soluble recombinant human urokinase receptor (suPAR) (human, UniProt Q03405 23-299, biotinylated in the plate assays (sites not given)). Nature of the experiment: uPAR receptor binding assay.
In experiment [2] the target is T1, Soluble recombinant human urokinase …. Nature of the experiment: uPAR receptor binding assay. The source holds these as a separate data set.

Broadly, the IC50 is the concentration at which inhibition is half-maximal.

T1 sequence (Q03405 23-299): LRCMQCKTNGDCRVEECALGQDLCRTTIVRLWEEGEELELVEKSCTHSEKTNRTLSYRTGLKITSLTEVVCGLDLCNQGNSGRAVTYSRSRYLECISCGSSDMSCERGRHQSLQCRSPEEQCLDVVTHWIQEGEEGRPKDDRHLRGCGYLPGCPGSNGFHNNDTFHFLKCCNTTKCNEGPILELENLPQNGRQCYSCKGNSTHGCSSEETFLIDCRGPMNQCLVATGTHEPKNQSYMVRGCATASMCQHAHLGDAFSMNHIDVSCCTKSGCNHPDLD

On to AESTYHHLSLGYMYTLN-NH2 [Peptide 25 (synthetic peptide of clone 25)], for which the IC50 in experiment [1] and in experiment [2] was over 10000 nM in each case.

Take AEPMPHSLNFSQYLWYT-NH2 [Clone 20 peptide]: the half-maximal inhibitory concentration (IC50) in experiment [1] and in experiment [2] was 10 nM in each case.

In the case of CLNGGTAVSNKYFSNIHWCN [uPA13-32 peptide (amino acids 13-32 of human urokinase with Cys19 converted to Ala)], the IC50 in experiment [1] and in experiment [2] was 250 nM each time.
